Patent US20050266004A1 (published 2005)

Key:
[1] = molecular target: T1, recombinant human lymphotoxin alpha (rhuLTα) (human, UniProt P01374 35-205); experiment: SPR; Mab captured on immobilized anti-murine Fc antibody, rhuLTα in solution
T1 construct: also called human LTα; Soluble LTα
T1 sequence (looked up): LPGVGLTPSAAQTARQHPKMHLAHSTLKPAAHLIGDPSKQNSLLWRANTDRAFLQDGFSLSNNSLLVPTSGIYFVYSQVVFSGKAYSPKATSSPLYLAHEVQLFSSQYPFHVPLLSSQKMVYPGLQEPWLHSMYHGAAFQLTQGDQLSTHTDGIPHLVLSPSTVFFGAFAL
Description: The affinity of anti-human LTα Mabs for rhuLTα was determined using surface plasmon resonance technology. The murine Mabs were first captured on chips that contained immobilized polyclonal anti-murine Fc antibody. Buffer containing rhuLTα was then passed over the captured Mab molecules and the resulting change in the mass bound over time was recorded.

murine LTα = molecular target: T2, murine LTα (murine, UniProt P09225 34-202, limits assumed); experiment: EIA, recombinant protein coated at 1 µg/mL
T2 construct: Coated as recombinant protein in the EIA; used as 'murine LTα lysates' in the WEHI assay; also called murine LTα lysates
T2 sequence (looked up): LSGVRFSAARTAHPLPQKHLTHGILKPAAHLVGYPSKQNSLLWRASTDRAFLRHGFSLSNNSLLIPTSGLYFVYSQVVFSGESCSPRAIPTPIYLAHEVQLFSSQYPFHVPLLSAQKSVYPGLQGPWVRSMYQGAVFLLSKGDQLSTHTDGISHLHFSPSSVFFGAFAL
Description: (§1) Enzyme immunoassays (EIAs) were used to test hybridoma cell supernatants for the presence of murine anti-LTα Mabs. Briefly, plates were coated with rhuLTα at 10 μg/mL in PBS overnight. After washing in 0.15 M saline containing 0.02% (v/v) Tween 20, the wells were blocked with 1% (w/v) BSA in PBS for 1 hour at RT. Undiluted hybridoma supernatants were incubated on the plates for one hour at 37° C. The plates were washed and probed with HRP-conjugated goat anti-mouse IgG Fc specific antibody for one hour at 37° C. The plates were again washed and citrate-phosphate substrate solution (0.1 M citric acid and 0.2 M sodium phosphate, 0.01% H₂O₂ and 1 mg/mL OPD) was added for 15 minutes at RT. Stop solution (4N sulfuric acid) was then added and the OD's were read at 490 nm using an automated plate spectrophotometer. The anti-human LTα Mabs were assessed for their ability to cross-react with murine LTα or human TNFα. The recombinant proteins were coated on EIA plates at 1 μg/mL in the same manner described above. Purified Mabs were incubated on the plates in serial dilutions starting at […] for 1 hour at 37° C. The plates were washed, probed and processed as above. […] Eight different hybridoma clones that secrete a murine IgG1 κ Mab specifically binds to rhuLTα.

human TNFα = molecular target: T3, human TNFα (human, UniProt P01375 77-233); experiment: EIA, recombinant protein coated at 1 µg/mL
T3 construct: Coated as recombinant protein in the EIA
Description: as §1

[2] = molecular target: T1, recombinant human lymphotoxin alpha …; experiment: cell-based or functional assay

T3 sequence (P01375 77-233 limits assumed): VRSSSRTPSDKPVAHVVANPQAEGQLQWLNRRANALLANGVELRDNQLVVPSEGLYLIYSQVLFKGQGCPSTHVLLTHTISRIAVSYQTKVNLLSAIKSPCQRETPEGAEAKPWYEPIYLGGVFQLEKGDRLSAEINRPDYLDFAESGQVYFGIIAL

B1: murine anti-human LTα Mab 4 (antibody, V domains shown)
VH: PGLVAPAQSLSITCTVSGFSLTSYGVHWVRQPPGKGLEWLGVIWAGGNTNYNSPLMSRLRIIKDNSKSQVFLKMNSLQADDTAMYYCVSHDVNNPFGYWGQGTLVTVSA
VL: DIQMTQTTSSLSASLGDRVTISCRASQDITNYLNWYQQKPDGTVKLLIYYTSRLHSGVPSRFSGSGSGTDYSLTISNLEQEDIATYFCQQGNTLPYTFGGGTRLEIK
notes: Tested as the murine IgG1 kappa hybridoma Mab; also called Mab number 4
Q: Which Kd [1] does the source give for B1 here?
A: 1.1 nM

Q: Does B1 bind (murine LTα)?
A: no binding (tested: serial dilutions starting at 25 µg/nL)

Q: Does B1 bind (human TNFα)?
A: no binding (tested: serial dilutions starting at 25 µg/nL)

Q: What about the “IC50, inhibition of LTα-mediated WEHI 164 cell cytotoxicity, rhuLTα at 10 ng/mL” value [2] of the same binder?
A: 6.2 µg/mL

Q: And the “IC50, inhibition of WEHI 164 cell cytotoxicity, rhuLTα at 0.1 ng/mL” value [2]?
A: 0.54 µg/mL

Q: What about the “normalized molar ratio of Mab to rhuLTα at the IC50 value, rhuLTα at 0.1 ng/mL” value [2] of the same binder?
A: 1800 molar ratio Mab:rhuLTα
